How the values were obtained:
Conditions in all cases: both partners purified
[1] = molecular target: T1, CaM N-lobe (residues 1–78) (human, UniProt P0DP23 2-79); test: other fluorescence titration; competition: 12.5 nM D-CaM mixed with helix A (46.4 nM) or helix B (20.1 nM), isolated lobe added incrementally; no Ca2+; one site Hill fit, Kd derived assuming 1:1 binding
T1 construct: human calmodulin N-lobe, residues 1-78; cDNA from the group of Daniel L. Minor Jr; also called N-domain; CaM 1–78; source: produced as described previously [28], purified

[2] = molecular target: T2, CaM C-lobe (residues 79–148) (human, UniProt P0DP23 80-149); test: as above
T2 construct: human calmodulin C-lobe, residues 79-148; cDNA from the group of Daniel L. Minor Jr; also called C-domain; CaM 79–148; source: produced as described previously [28], purified

[3] = molecular target: T1, CaM N-lobe (residues 1–78); test: other fluorescence titration; competition: 12.5 nM D-CaM mixed with helix A (65.6 nM) or helix B (42.6 nM), isolated lobe added incrementally; with Ca2+; one site Hill fit, Kd derived assuming 1:1 binding
[4] = molecular target: T2, CaM C-lobe (residues 79–148); test: as above
[5] = molecular target: T3, dansylated calmodulin (rat, UniProt P0DP30 1-149, dansyl group covalently bound to CaM (position not given)); test: other fluorescence titration; 12.5 nM D-CaM, ligand added incrementally, enhancement of dansyl emission; 25 mM Tris-HCl, 120 mM KCl, 5 mM NaCl, 2 mM MgCl2, 10 mM EGTA, pH 7.4; no free Ca2+; apparent affinity (EC50 of a Hill fit)
T3 construct: calmodulin, rat brain, NM_017326; also called D-CaM; dansyl-CaM

[6] = molecular target: T3, dansylated calmodulin; test: other fluorescence titration; 12.5 nM D-CaM, ligand added incrementally, enhancement of dansyl emission; D-CaM binding buffer with 3.9 µM free Ca2+ (9.63 mM Ca2+, 2 mM Mg2+, 10 mM EGTA, pH 7.4); apparent affinity (EC50 of a Hill fit)

Kd [1]: 530 nM
Kd [2]: 169 nM
Kd [3]: 267 nM
Kd [4]: 17 nM
EC50 [5]: 46.4 nM
EC50 [6]: 65.6 nM
B1: Kv7.2 helix A (hA residues G310–T359) (domain or fragment, human, UniProt O43526 310-359, looked up)
chain: GILGSGFALKVQEQHRQKHFEKRRNPAAGLIQSAWRFYATNLSRTDLHST
notes: helix A of human Kv7.2 (KCNQ2) Y15065, residues G310-T359; also called segment A; source: E. coli BL21-DE3, purified (GSH sepharose)

From publication PMC3904923, “Pivoting between Calmodulin Lobes Triggered by Calcium in the Kv7.2/Calmodulin Complex” (PLoS ONE, 2014)
